One molecule from article PMC10427353, “MSL1 Promotes Liver Regeneration by Driving Phase Separation of STAT3 and Histone H4 and Enhancing Their Acetylation” (Advanced Science, 2023) can be followed below.

Assay [1] has as its target T1, STAT3 (recombinant, pET‐28a) (mouse, UniProt P42227 1-770).
T1 construct: STAT3 in pET‐28a; cDNA amplified from mouse liver; The legend of the sedimentation assay names 'STAT3'; source: E. coli BL21, purified (HiTrap HP chelating column)
In words: co-sedimentation; sedimentation assay of condensates: purified proteins mixed in phase separation buffer (20 mM HEPES pH 7.8, NaCl, PEG‐8000), 15 000 g for 10 min, supernatant and pellet on SDS–PAGE with Coomassie staining. The note with it: both partners purified.

Assay [2] deals with T2, H4 (recombinant, pET‐28a) (mouse, UniProt P62806 1-103).
T2 construct: histone H4 in pET‐28a; cDNA amplified from mouse liver; The legend of the sedimentation assay names 'H4'; also called histone H4; source: E. coli BL21, purified (HiTrap HP chelating column)
The assay is described as above. The note with it: both partners purified.

T1 sequence (P42227 whole entry): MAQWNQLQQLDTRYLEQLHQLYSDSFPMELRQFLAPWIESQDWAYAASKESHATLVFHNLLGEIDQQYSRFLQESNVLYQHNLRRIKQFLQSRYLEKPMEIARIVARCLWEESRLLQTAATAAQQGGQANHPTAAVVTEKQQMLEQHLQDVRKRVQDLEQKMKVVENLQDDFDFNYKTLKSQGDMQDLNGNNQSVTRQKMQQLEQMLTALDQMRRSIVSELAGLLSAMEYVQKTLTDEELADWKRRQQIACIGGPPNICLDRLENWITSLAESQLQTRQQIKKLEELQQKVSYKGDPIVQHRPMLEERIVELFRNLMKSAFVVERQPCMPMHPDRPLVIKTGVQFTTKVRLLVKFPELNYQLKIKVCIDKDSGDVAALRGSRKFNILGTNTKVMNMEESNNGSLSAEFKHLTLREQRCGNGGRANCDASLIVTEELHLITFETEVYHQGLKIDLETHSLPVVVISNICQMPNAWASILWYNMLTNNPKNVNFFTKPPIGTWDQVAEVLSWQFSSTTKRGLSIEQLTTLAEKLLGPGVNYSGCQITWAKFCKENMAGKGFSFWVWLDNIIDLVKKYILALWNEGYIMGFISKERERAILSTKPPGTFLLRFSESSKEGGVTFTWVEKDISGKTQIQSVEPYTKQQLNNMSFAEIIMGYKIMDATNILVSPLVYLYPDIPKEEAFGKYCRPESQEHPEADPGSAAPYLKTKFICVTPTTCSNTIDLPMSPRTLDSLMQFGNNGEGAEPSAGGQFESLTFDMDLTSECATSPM

B1: MSL1 (recombinant, pET‐28a) (natural protein, mouse, UniProt Q6PDM1 1-616, looked up)
chain: MTMRSAVFKAAAAPAGGNPEQRLDYERAAALGGPEDESGAAEAHFLPRHRKLKEPGPPLASSQGGSPSPSPAGCGGGKGRGLLLPAGAAPGQQEESWGGSVPLPCPPPATKQAGIGGEPVAAGAGCSPRPKYQAVLPIQTGSIVVAAAKEPTPWAGDKGGAAPPAATASDPAGPPPLPLPGPPPLAPTATAGTLAASEGRWKSIRKSPLGGGGGSGASSQAACLKQILLLQLDLIEQQQQQLQAKEKEIEELKSERDTLLARIERMERRMQLVKRDNEKERHKLLQGYEPEEREEAELSEKIKLERQPELCETSQALPSKPFSCGRSGKGHKRKTPFGNTERKTPVKKLAPEFSKVKTKTPKHSPIKEEPCGSISETVCKRELRSQETPEKPRSSVDTPPRLSTPQKGPSTHPKEKAFSSEMEDLPYLSTTEMYLCRWHQPPPSPLPLRESSPKKEETVARCLMPSSVAGETSVLAVPSWRDHSVEPLRDPNPSDILENLDDSVFSKRHAKLELDEKRRKRWDIQRIREQRILQRLQLRMYKKKGIQESEPEVTSFFPEPDDVESLLITPFLPVVAFGRPLPKLAPQNFELPWLDERSRCRLEIQKKHTPHRTCRK
notes: MSL1 in pET‐28a; cDNA amplified from mouse liver; The legend of the sedimentation assay names 'MSL1'; source: E. coli BL21, purified (HiTrap HP chelating column)
For the molecule B1, the binding result in assay [1] and in assay [2] was “binds” in each case.
